Assay results published in US6528487B1, “Peptide inhibitors of inflammation mediated by selectins” (Centocor, Inc., priority 1991, dated 2003).
“And” between values parts separate entries of the source, which are not always exact repeats. Equal values may be shown once. Non-standard residues stand in square brackets, D forms with d. No end group written: not given here. *: point of attachment. Fmoc = O=C(OCC1c2ccccc2-c2ccccc21)*

What was measured:
GMP-140 = target: T1, GMP-140 (Homo sapiens, UniProt P16109); assay: Inhibition of neutrophil binding to GMP-140 coated wells; assay type: cell-based; details: human neutrophils, immobilized GMP-140
T1 construct: from tissue; host or cells: human platelets (outdated platelet packs from a blood bank)
T1 sequence (P16109 42-830): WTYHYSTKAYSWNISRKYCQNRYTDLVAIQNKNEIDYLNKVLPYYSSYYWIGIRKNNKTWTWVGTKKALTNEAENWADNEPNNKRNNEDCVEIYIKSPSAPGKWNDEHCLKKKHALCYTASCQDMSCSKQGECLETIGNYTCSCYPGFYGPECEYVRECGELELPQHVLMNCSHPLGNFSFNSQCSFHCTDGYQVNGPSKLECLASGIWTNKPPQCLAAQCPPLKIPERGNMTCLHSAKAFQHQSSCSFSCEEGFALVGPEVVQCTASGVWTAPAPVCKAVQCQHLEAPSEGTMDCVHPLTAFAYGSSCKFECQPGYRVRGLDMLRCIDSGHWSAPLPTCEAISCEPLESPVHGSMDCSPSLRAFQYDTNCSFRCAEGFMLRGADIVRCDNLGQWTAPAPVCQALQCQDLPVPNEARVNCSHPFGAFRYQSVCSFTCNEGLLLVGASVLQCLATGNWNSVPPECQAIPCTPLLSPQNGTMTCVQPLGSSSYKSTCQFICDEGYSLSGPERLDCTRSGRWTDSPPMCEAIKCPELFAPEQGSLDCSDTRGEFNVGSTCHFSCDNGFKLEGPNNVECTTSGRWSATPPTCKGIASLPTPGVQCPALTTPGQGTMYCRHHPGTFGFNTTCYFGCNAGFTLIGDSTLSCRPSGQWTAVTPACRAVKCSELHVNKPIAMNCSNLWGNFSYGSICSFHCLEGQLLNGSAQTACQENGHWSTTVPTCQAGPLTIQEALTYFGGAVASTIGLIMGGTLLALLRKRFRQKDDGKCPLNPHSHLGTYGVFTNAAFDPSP
Excerpt: Peptides can be screened for their ability to inhibit adhesion to cells, for example, neutrophil adhesion to purified GMP-140 immobilized on plastic wells, using the assay described by Geng, et al., Nature 343, 757-760 (1990).
Human neutrophils are isolated from heparinized whole blood by density gradient centrifugation on Mono-Poly resolving media, Flow laboratories. Neutrophil suspensions are greater than 98% pure and greater than 95% viable by trypan blue exclusion. For adhesion assays, neutrophils are suspended at a concentration of 2×10^6 cells/mL in Hanks' balanced salt solution containing 1.26 mM Ca^2+ and 0.81 mM Mg^2+ (HBSS, Gibco) with 5 mg/mL human serum albumin (HBSS/HSA). Adhesion assays are conducted in triplicate in 96-well microtiter plates, Corning, incubated at 4° C. overnight with 50 microliters of various protein solutions.
GMP-140 is isolated from human platelet lysates by immunoaffinity chromatography on antibody S12-Sepharose™ and ion-exchange chromatography on a Mono-Q™ column (FLPC, Pharmacia Fine Chemicals, as follows.
GMP-140 is plated at 5 micrograms/mL and the control proteins: human serum albumin (Alb), platelet glycoprotein Iib/IIIha (Iib), von Willebrand factor (vWF), fibrinogen (FIB), thrombomodulin™, gelatin (GEL) or human serum (HS), are added at 50 micrograms/mL. All wells are blocked for 2 h at 22° C. with 300 microliters HBSS containing 10 mg/mL HSA, then ashed three times with HBSS containing 0.1% Tween-20 and once with HBSS. Cells (2×10^5 per well are added to the wells and incubated at 22° C. for 20 min. The wells are then filled with HGSS/HSA, sealed with acetate tape (Dynatech), and centrifuged inverted at 150 g for 5 min. After discarding nonadherent cells and supemates, the contents of each well are solubilized with 200 microliters of 0.5% hexadecyltrimethylammonium bromide, Sigma, in 50 mM potassium phosphate, pH 6.0, and assayed for myeloperoxidase activity, Ley, et al., Blood 73, 1324-1330 (1989). The number of cells bound is derived from a standard curve of myeloperoxidase activity versus numbers of cells. Under all assay conditions, the cells release less than 5% of total myeloperoxidase and lactate dehydrogenase. Inhibition is read as a lower percent adhesion, so that a value of 5% means that 95% of the specific adhesion was inhibited.
Binding of various peptides to GMP-140 coated wells, as described above, were compared.
Binding of the peptides at various concentrations, ranging from 0.05 to 1 mM were compared.
A 5 μg/mL solution of GMP-140 in HBSS (buffer) is prepared. 50 μL is pipetted per well with the exception of three wells (A10 to A12) and the plate is stored overnight at 0° C. to 4° C. The liquids are removed by aspiration and 300 μL of 5 mg/mL human serum albumin (HSA)/HBSS is placed in the wells coated with GMP-140 plus the three non-coated wells to be used as control wells. The plate is allowed to incubate at room temperature for two hours. The HSA/HBSS solution is removed and the wells washed three times with 300 μL/well of HBSS. The third 300 μL wash of HBSS is left in each well and the plate is kept at room temperature until it is used.
Eight to ten mL of fresh human blood collected in heparinized tubes is carefully layered over 5 mL of the Mono-Poly Resolving Medium in 15 mL polypropylene centrifuge tubes. The tubes are centrifuged for 30 minutes at room temperature and 1400 to 1600 rpm. The tubes are rotated 180° and centrifuged for another 30 minutes under the same conditions. The top plasma layer and first cellular layer of leukocytes are drawn off. The second cellular layer of neutrophils is harvested (usually 2 to 3 mL per tube) and is placed in a clean 15 mL centrifuge tube. This is then underlayered with 1.5 mL of fresh resolving medium and spun at 2000 rpm for 15 minutes at room temperature. This is done to further purify the neutrophils from residual red blood cells. […]

[1] = target: GMP-140 receptors on the surface of leukocytes (human); assay: neutrophil adhesion to GMP-140 coated wells, peptide preincubated with neutrophils, myeloperoxidase read-out

Q: What does the source list for RKNNKTWT-NH2?
A: Percent inhibition of neutrophil binding to GMP-140 (GMP-140; peptide concentration 0.1 mM): 26%; Percent inhibition of neutrophil binding to GMP-140 (GMP-140; peptide concentration 0.5 mM): 23%; Percent inhibition of neutrophil binding to GMP-140 (GMP-140; peptide concentration 1.0 mM): 34%

Q: With “Arg-Lys-Val-Asn-Asn-Val-Trp-NH2 (RKVNNVW-NH2)” as the molecule, how does the “Percent inhibition of neutrophil binding to GMP-140” value (GMP-140; peptide concentration 1.0 mM) read?
A: 17%

Q: With “RKVNNVWVWV [RKVNNVWVWV, Arginyl-lysyl-valyl-asparaginyl-asparaginyl-valyl-tryptophyl-valyl-tryptophyl-valine]” as the molecule, how does the inhibition at 100 µM (GMP-140; peptide concentration 0.1 mM, read-out: Percent inhibition of neutrophil binding to GMP-140) read?
A: 82%

Q: What about the inhibition at 500 µM (GMP-140; peptide concentration 0.5 mM, read-out: Percent inhibition of neutrophil binding to GMP-140) of the same molecule?
A: 98%

B1: RKNNKTW-NH2 (peptide)
peptide: RKNNKTW-NH2
Q: Which results are given for B1?
A: percent inhibition of neutrophil binding to GMP-140 at 0.1 mM peptide [1]: 31%; percent inhibition of neutrophil binding to GMP-140 at 0.5 mM peptide [1]: 53%; percent inhibition of neutrophil binding to GMP-140 at 1.0 mM peptide [1]: 99%

B2: RKNNKTWT-NH2 (peptide)
peptide: RKNNKTWT-NH2
Q: For B2, which percent inhibition of neutrophil binding to GMP-140 at 0.1 mM peptide [1] is on record?
A: 26%

Q: What about the percent inhibition of neutrophil binding to GMP-140 at 0.5 mM peptide [1] of the same molecule?
A: 23%

Q: What about the percent inhibition of neutrophil binding to GMP-140 at 1.0 mM peptide [1] of the same molecule?
A: 34%

B3: … (peptide)
peptide: RKNNKTWTWV
Q: What does the source list for B3?
A: percent inhibition of neutrophil binding to GMP-140 at 0.1 mM peptide [1]: 14%; percent inhibition of neutrophil binding to GMP-140 at 1.0 mM peptide [1]: 35%

B4: Ac-…-NH2 (peptide)
peptide: Ac-RKNNKTWTWV-NH2
Q: How did the percent inhibition of neutrophil binding to GMP-140 at 0.1 mM peptide [1] turn out when B4 was run?
A: 35%

Q: And the percent inhibition of neutrophil binding to GMP-140 at 0.5 mM peptide [1]?
A: 50%

B5: …-NH2 (peptide)
peptide: RENNKTWTWV-NH2
Q: Which results are given for B5?
A: percent inhibition of neutrophil binding to GMP-140 at 0.1 mM peptide [1]: 34%; percent inhibition of neutrophil binding to GMP-140 at 0.5 mM peptide [1]: 94%; percent inhibition of neutrophil binding to GMP-140 at 1.0 mM peptide [1]: 96%

B6: RKVNNVW-NH2 (peptide)
peptide: RKVNNVW-NH2
Q: B6 was tested. Which percent inhibition of neutrophil binding to GMP-140 at 1.0 mM peptide [1] did it give?
A: 17%

B7: …-NH2 (peptide)
peptide: RKNNKTWTWE-NH2
Q: Which percent inhibition of neutrophil binding to GMP-140 at 0.1 mM peptide [1] does the source give for B7 here?
A: 17%

Q: And the percent inhibition of neutrophil binding to GMP-140 at 0.5 mM peptide [1]?
A: 20%

B8: …-NH2 (peptide)
peptide: RKNNGTWTWV-NH2
Q: What does the source list for B8?
A: percent inhibition of neutrophil binding to GMP-140 at 0.1 mM peptide [1]: 46%; percent inhibition of neutrophil binding to GMP-140 at 0.5 mM peptide [1]: 99%; percent inhibition of neutrophil binding to GMP-140 at 1.0 mM peptide [1]: 99%

B9: …-NH2 (peptide)
peptide: RKNNKTWTWV-NH2
Q: Which percent inhibition of neutrophil binding to GMP-140 at 0.1 mM peptide [1] does the source give for B9 here?
A: 13% and 14%

Q: What about the percent inhibition of neutrophil binding to GMP-140 at 0.5 mM peptide [1] of the same molecule?
A: 20% and 30%

B10: … (peptide)
peptide: RKVNNVWVWV
Q: For B10, which percent inhibition of neutrophil binding to GMP-140 at 0.1 mM peptide [1] is on record?
A: 82%

Q: What about the percent inhibition of neutrophil binding to GMP-140 at 0.5 mM peptide [1] of the same molecule?
A: 98%

B11: …-NH2 (peptide)
peptide: YKNNKTWTWV-NH2
Q: What does the source list for B11?
A: percent inhibition of neutrophil binding to GMP-140 at 0.1 mM peptide [1]: 9%; percent inhibition of neutrophil binding to GMP-140 at 0.5 mM peptide [1]: 98%; percent inhibition of neutrophil binding to GMP-140 at 1.0 mM peptide [1]: 104%

B12: …-NH2 (peptide)
peptide: RKNNKTWTWVGTKKALTNEC-NH2
Q: With B12 as the molecule, how does the percent inhibition of neutrophil binding to GMP-140 at 0.1 mM peptide [1] read?
A: 9%

Q: And the percent inhibition of neutrophil binding to GMP-140 at 1.0 mM peptide [1]?
A: 47%

B13: FMOC-NNKTW-NH2 (peptide)
peptide: Fmoc-NNKTW-NH2
SMILES: C[C@@H](O)[C@H](NC(=O)[C@H](CCCCN)NC(=O)[C@H](CC(N)=O)NC(=O)[C@H](CC(N)=O)NC(=O)OCC1c2ccccc2-c2ccccc21)C(=O)N[C@@H](Cc1c[nH]c2ccccc12)C(N)=O
Q: What does the source list for B13?
A: percent inhibition of neutrophil binding to GMP-140 at 0.1 mM peptide [1]: 85%; percent inhibition of neutrophil binding to GMP-140 at 0.5 mM peptide [1]: 100%; percent inhibition of neutrophil binding to GMP-140 at 1.0 mM peptide [1]: 99%

B14: r…-NH2 (peptide)
peptide: [dR]KIGGIWTWV-NH2
modifications: N-terminus assumed
SMILES: CC[C@H](C)[C@H](NC(=O)CNC(=O)CNC(=O)[C@@H](NC(=O)[C@H](CCCCN)NC(=O)[C@H](N)CCCNC(=N)N)[C@@H](C)CC)C(=O)N[C@@H](Cc1c[nH]c2ccccc12)C(=O)N[C@H](C(=O)N[C@@H](Cc1c[nH]c2ccccc12)C(=O)N[C@H](C(N)=O)C(C)C)[C@@H](C)O
Q: With B14 as the molecule, how does the percent inhibition of neutrophil binding to GMP-140 at 0.1 mM peptide [1] read?
A: 95%

Q: And the percent inhibition of neutrophil binding to GMP-140 at 0.5 mM peptide [1]?
A: 96%

B15: RkIGGIWTWV-NH2 (peptide)
peptide: R[dK]IGGIWTWV-NH2
modifications: N-terminus assumed
SMILES: CC[C@H](C)[C@H](NC(=O)CNC(=O)CNC(=O)[C@@H](NC(=O)[C@@H](CCCCN)NC(=O)[C@@H](N)CCCNC(=N)N)[C@@H](C)CC)C(=O)N[C@@H](Cc1c[nH]c2ccccc12)C(=O)N[C@H](C(=O)N[C@@H](Cc1c[nH]c2ccccc12)C(=O)N[C@H](C(N)=O)C(C)C)[C@@H](C)O
Q: Which percent inhibition of neutrophil binding to GMP-140 at 0.1 mM peptide [1] does the source give for B15 here?
A: 67%

Q: What about the percent inhibition of neutrophil binding to GMP-140 at 0.5 mM peptide [1] of the same molecule?
A: 88%

Q: And the percent inhibition of neutrophil binding to GMP-140 at 1.0 mM peptide [1]?
A: 97%

B16: …-NH2 (peptide)
peptide: RKIGGIWTWV-NH2
Q: Which percent inhibition of neutrophil binding to GMP-140 at 0.1 mM peptide [1] does the source give for B16 here?
A: 96%

Q: And the percent inhibition of neutrophil binding to GMP-140 at 0.5 mM peptide [1]?
A: 103%

Q: And the percent inhibition of neutrophil binding to GMP-140 at 1.0 mM peptide [1]?
A: 105%

B17: …-NH2 (control peptide) (peptide)
peptide: KWKWNRTNVT-NH2
Q: Which results are given for B17?
A: percent inhibition of neutrophil binding to GMP-140 at 0.1 mM peptide [1]: 0%; percent inhibition of neutrophil binding to GMP-140 at 0.5 mM peptide [1]: 0%; percent inhibition of neutrophil binding to GMP-140 at 1.0 mM peptide [1]: 0%

B18: …-NH2 (peptide)
peptide: RKVNNVWVWV-NH2
Q: Which percent inhibition of neutrophil binding to GMP-140 at 0.1 mM peptide [1] does the source give for B18 here?
A: 94%

Q: And the percent inhibition of neutrophil binding to GMP-140 at 0.5 mM peptide [1]?
A: 102%

B19: …-NH2 (peptide)
peptide: CRKNNKTWTWV-NH2
Q: With B19 as the molecule, how does the percent inhibition of neutrophil binding to GMP-140 at 0.1 mM peptide [1] read?
A: 87%

Q: What about the percent inhibition of neutrophil binding to GMP-140 at 1.0 mM peptide [1] of the same molecule?
A: 105%
